# Measurements: the supplement of paper PMC10567573
# B1: PRAME (parent)
# chain: KKLKIFAMPMQDIKMILKMVQLDS
# B2: KCTD10 (parent)
# chain: SSKEEQKLIATSNKPAVKLLYNRS
# Variants of: B1
# Assay: protein stability index of a GFP-peptide fusion (GPS, HEK-293T) (PSI 1-6); higher = more stable
# Settings: c terminus: a fixed tail appended
# 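Further: lentivirally expressed fusions sorted by FACS into six bins by GFP to DsRed ratio, PSI derived from sequencing read proportions per bin multiplied by bin number.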
row,Variant,protein stability index
1,I5G,4.35
2,I5R,2.43
3,I5C,2.65
4,I5F,2.77
5,I5H,1.77
6,I5V,3.29
7,I5M,3.17
8,I5P,2.55
9,I5D,1.82
10,I5K,4.37
11,I5T,2.5
12,I5E,3.63
13,I5A,3.02
14,I5Y,2.6
15,I5N,4.02
16,A7H,2.52
17,A7I,3.67
18,A7G,1.38
19,A7P,2.85
20,A7D,3.87
21,A7K,3.26
22,A7M,2.6
23,A7C,2.66
24,A7N,2.46
25,K1C,2.92

row,Variant,protein stability index
1,K1V,2.08
2,K1N,3.99
3,K1D,3.38
4,K1L,2.86
5,K1Y,1.86
6,K1R,3.39
7,K1F,4.97
8,K1P,3.89
9,K1E,2.31
10,K1S,3.56
11,K1T,3.61
12,K1Q,2.55
13,K1A,3.05
14,K1H,3.51
15,K1M,2.68
16,F6W,4.71
17,F6G,2.55
18,F6M,1.84
19,F6Q,1.59
20,F6A,2.77
21,F6T,2.2
22,F6D,1.26
23,F6K,2.72
24,F6L,3.92
25,F6C,3.09

row,Variant,protein stability index
1,F6N,1.3
2,F6E,1.52
3,F6R,3.11
4,L3Y,4.33
5,L3S,2.92
6,L3I,1.63
7,L3W,2.03
8,L3C,2.1
9,L3D,3.34
10,L3E,1.06
11,L3R,2.1
12,L3H,3.6
13,L3M,4.28
14,L3N,2.82
15,K4E,2.02
16,K4H,4.52
17,K4Q,3.25
18,K4D,1.92
19,K4P,2.85
20,K4W,2.87
21,K4T,3.69
22,K4G,4.41
23,K4I,3.41
24,K4M,3.45
25,K4C,2.4

row,Variant,protein stability index
1,K4A,2.11
2,K4R,1.99
3,K4F,2.44
4,K4S,3.49
5,K4N,1.6
6,K4V,3.08
7,K2F,2.09
8,K2Q,3.53
9,K2L,2.34
10,K2M,1.79
11,K2H,3.33
12,K2I,3.39
13,K2P,2.61
14,K2A,2.69
15,K2D,3.31
16,K2R,1.59
17,K2N,4.46
18,K2V,2.36
19,K2T,2.9
20,K2S,2.94
21,K2Y,3.88
22,K2G,2.86

# Variants of: B2
# Assay: as above
# Settings: c terminus: a fixed tail appended
row,Variant,protein stability index
1,V17R,3.94
2,V17D,4.41
3,V17Q,4.52
4,V17F,2.74
5,V17L,4.02
6,V17N,4.76
7,V17S,4.3
8,V17H,4.35
9,V17I,4.02
10,V17C,4.21
11,V17K,4.61
12,V17E,4.15
13,V17G,4.3
14,V17W,3.39
15,V17M,3.97
16,V17P,4.31
17,V17Y,3.51
18,V17T,4.28
19,V17A,4.34
20,S24T,4.21
21,S24P,4.09
22,S24D,4.45
23,S24H,3.56
24,S24F,3.52

row,Variant,protein stability index
1,S24M,3.52
2,S24E,4.55
3,S24V,3.5
4,S24W,2.6
5,S24I,3.22
6,S24Y,3.48
7,S24C,3.25
8,S24N,4.2
9,S24G,4.04
10,S24R,4.46
11,S24K,4.7
12,S24A,3.65
13,S24Q,4.17
14,S24L,3.4
15,L20I,4.6
16,L20M,4.11
17,L20P,4.98
18,L20Y,3.82
19,L20C,3.79
20,L20S,4.35
21,L20F,3.95
22,L20K,4.53
23,L20H,4.48
24,L20T,4.72

row,Variant,protein stability index
1,L20A,4.89
2,L20N,4.37
3,L20D,4.53
4,L20E,3.98
5,L20W,3.35
6,L20R,4.46
7,L20G,4.73
8,L20V,4.09
9,L20Q,4.28
10,Y21I,4.13
11,Y21G,4.97
12,Y21H,4.46
13,Y21E,4.25
14,Y21M,4.18
15,Y21T,4.54
16,Y21P,4.07
17,Y21A,4.33
18,Y21F,3.75
19,Y21W,4.05
20,Y21C,4.73
21,Y21L,4.06
22,Y21Q,4.46
23,Y21N,4.58
24,Y21D,4.93

row,Variant,protein stability index
1,Y21V,3.67
2,Y21R,4.42
3,Y21S,4.33
4,Y21K,4.68
5,A16M,3.84
6,A16T,4.1
7,A16E,4.26
8,A16Y,3.56
9,A16F,3.57
10,A16D,4.18
11,A16R,3.8
12,A16V,3.89
13,A16W,2.94
14,A16I,3.97
15,A16S,4.2
16,A16N,4.19
17,A16C,3.74
18,A16P,3.95
19,A16Q,4.19
20,A16H,4.16
21,A16K,4.33
22,A16L,3.54
23,A16G,3.79
24,R23E,4.63

row,Variant,protein stability index
1,R23V,3.74
2,R23T,3.7
3,R23S,4.13
4,R23F,3.29
5,R23C,3.76
6,R23G,3.75
7,R23I,3.37
8,R23D,4.71
9,R23M,3.35
10,R23N,4.21
11,R23A,3.99
12,R23Y,3.32
13,R23P,4.21
14,R23Q,4.01
15,R23L,3.03
16,R23K,4.29
17,R23W,3.15
18,R23H,3.85
19,K18D,4.25
20,K18T,3.74
21,K18I,2.34
22,K18V,3.13
23,K18P,4.25
24,K18S,4.39

row,Variant,protein stability index
1,K18F,2.83
2,K18Y,3.03
3,K18M,3.45
4,K18Q,4.39
5,K18H,3.89
6,K18A,4.05
7,K18R,4.33
8,K18E,4.34
9,K18L,3.25
10,K18N,4.26
11,K18W,2.4
12,K18C,4.21
13,K18G,4.02
14,L19G,4.13
15,L19W,3.35
16,L19R,4.29
17,L19D,4.62
18,L19S,4.18
19,L19E,4.44
20,L19H,4.41
21,L19F,4.12
22,L19V,4.25
23,L19K,4.69
24,L19Y,4.56

row,Variant,protein stability index
1,L19Q,4.31
2,L19A,4.59
3,L19I,4.59
4,L19T,4.95
5,L19N,4.72
6,L19M,4.59
7,L19C,4.39
8,L19P,4.94
9,K14V,3.96
10,K14G,4.03
11,K14F,3.39
12,K14T,4.04
13,K14N,3.96
14,K14W,2.63
15,K14S,4.24
16,K14H,3.59
17,K14I,3.66
18,K14L,3.8
19,K14R,4.2
20,K14E,4.39
21,K14C,3.73
22,K14A,3.76
23,K14D,4.57
24,K14Y,3.46

row,Variant,protein stability index
1,K14Q,4.28
2,K14M,3.76
3,K14P,4.32
4,S12P,4.29
5,S12T,4.34
6,S12V,3.88
7,S12Y,3.38
8,S12N,4.02
9,S12M,3.42
10,S12W,2.79
11,S12Q,4.26
12,S12R,4.02
13,N13L,3.3
14,N13M,3.69
15,N13F,3.16
16,N13W,2.67
17,N13P,4.12
18,N13Y,3.38
19,N13H,3.9
20,N13I,3.21
21,N13K,3.96
22,N13E,4.54
23,N13T,4
24,N13R,3.33

row,Variant,protein stability index
1,N13Q,2.95
2,N13A,3.58
3,N13G,4.28
4,N13C,2.31
5,N13S,3.79
6,N13V,3.75
7,N13D,4.73
8,P15M,3.47
9,P15W,2.19
10,P15D,4.2
11,P15R,3.51
12,P15K,3.39
13,P15G,4.24
14,P15Y,3.1
15,P15T,3.73
16,P15A,3.54
17,P15H,3.86
18,P15C,2.96
19,P15L,2.93
20,P15N,4.08
21,P15V,3.13
22,P15Q,3.96
23,P15E,4.53
24,P15S,4.07

row,Variant,protein stability index
1,P15F,3.1
2,P15I,2.81
3,N22K,4.16
4,N22C,3.7
5,N22V,3.54
6,N22F,3.17
7,N22Q,4.09
8,N22W,2.73
9,N22E,4.22
10,N22A,3.84
11,N22S,3.41
12,N22T,4.12
13,N22I,2.71
14,N22M,2.92
15,N22L,3.14
16,N22H,4.01
17,N22Y,2.96
18,N22R,4.15
19,N22P,3.83
20,N22G,4
21,N22D,4.55
